Experiment [1] relates to Ova-specific CD4+ T cells. Put plainly: Proliferation of CFSE-stained T cells co-cultured with treated DC: CD4+ T cells. Format: cell-based, OT2-tg mice. To be noted: DC incubated with 10 μg/mL for 24 h, co-culture 4 days. The protocol: (§1) T cell-mediated immune responses were investigated 96 h by measuring the proliferation of cells recovered from spleens after restimulation with BPPcysOva^mPEG. Non-Ag restimulated spleen cells were chosen as negative controls (FIG. 3). […] Taking into consideration that the BPPcysOva^mPEG has a promising effect on DC activation and maturation, next the capacity of these APC to stimulate the proliferation of antigen-specific CD8+ and CD4+ T cells was evaluated. Concentrations below 10^−8 M of BPPcysOva^mPEG were still able to induce an antigen specific proliferation of CD4+ T cells shown by the reduction of CFSE+ cells (FIGS. 4A-E).
(§2) FIG. 4: Proliferation of CD8+, CD4+ and regulatory T cells. DC were generated from bone marrow of C57BL/6 mice and incubated with 10 μg/mL of B) Ova C) Ova peptides, D) Ova in the presence of BPPcysMPEG and E) BPPcysOva^mPEG alone (A) Control) for 24 h. The following day, CD4+ T cells from spleens of OT2-tg animals or CD8+ T cells of OT1-tg animals were isolated. After staining with CFSE, CD8+, CD4+ T cells were co-cultured with adjuvant-treated DCs for 4 days. The decrease of CFSE-FITC expression due to cell division of CD8+ or CD4+ T cells were analysed by flow cytometric analysis. One representative experiment out of two is shown.

For experiment [2], the system named is Ova-specific CD8+ T cells. Briefly: Proliferation of CFSE-stained T cells co-cultured with treated DC: CD8+ T cells. Type of experiment: cell-based, OT1-tg mice. To be noted: DC incubated with 10 μg/mL for 24 h, co-culture 4 days. The protocol: as §1, §2
Experiment [3] concerns peritoneal macrophages from C3H/HeJ mice. Put plainly: Nitrogen monoxide release assay (macrophage activation). Format: cell-based. To be noted: with rIFN-γ, 45-48 hours; compared with the known BPPcysMPEG. How it is done:
Experimental protocol: In brief, peritoneal macrophages from C3H/HeJ mice were used as the macrophage source. They were cultured in 96-well microtiter plates and stimulated simultaneously with rIFN-γ and a serial dilution of macrophage activator. Insofar as necessary, the macrophage activators were dissolved in 25 mM octylglucoside in the first dilution step and then diluted further with medium (i.e. R-Malp-2). After an incubating time of 45-48 hours, the nitrate was reduced with nitrate reductase and the starting substance nitrogen monoxide was determined, as the sum of nitrate and nitrite, using Griess' reagent. 1 unit (U)/ml is defined as the dilution at which half-maximal stimulation takes place.
FIG. 2: Nitrogen monoxide release assay. Peritoneal macrophages from C3H/HeJ mice were used as the macrophage source. They were cultured in 96-well microtiter plates and stimulated simultaneously with rIFN-γ and a serial dilution of macrophage activator. After an incubating time of 45-48 hours, the nitrate was reduced with nitrate reductase and the starting substance nitrogen monoxide was determined, as the sum of nitrate and nitrite, using Griess' reagent.

Experiment [4] has as its system IFNgamma, IL-2, IL-4 and IL-17-secreting cells. Put plainly: ELISPOT of cytokine-secreting spleen cells in immunized mice. Type of experiment: in vivo. How it is done: (§3) Experimental protocol: Spleens were removed and pooled for analysis of cellular immune responses. Cells were grown in RPMI 1640 supplemented with 10% fetal calf serum, 100 U/ml of penicillin, 50 μg/ml of streptomycin, 5×10^−5 M 2-mercaptoethanol and 1 mM L-glutamine (GIBCO BRL, Karlsruhe, Germany) and maintained at 37° C. in a humidified 5% CO2 atmosphere. Lymph node and spleen cell suspensions were adjusted to 5×10^6 cells/ml in complete medium, cells were seeded with 100 μl per well in a flat-bottomed 96-well microtiter plate (Nunc) and plates were incubated for 4 days in the presence of different concentrations of soluble Ova. Each concentration was tested in triplicates.
FIG. 7: Detection of IFNgamma, IL-2, IL-4 and IL-17-secreting cells in immunized mice. Spleen cells (1×10^6 and 5×10^5 cells/well) recovered from animals vaccinated by the (A) i.n. or (B) s.c. route were incubated in the presence of either the Ova protein (for IL2 and IL4) or a Ova peptide (TPHPARIGL) encompassing its immunodominant MHC class I-restricted epitope (for IFNgamma). Then, the numbers of IFNgamma, IL2, IL4 and IL-17-producing cells was determined by ELISPOT. Results are presented as spot forming units per 10^6 cells, which were subtracted from the values obtained from non-stimulated cells. The SEM of triplicates is indicated by vertical lines.

Another experiment concerns spleen cells. Put plainly: Proliferation of spleen cells of immunized mice after in vitro restimulation with Ova, day 42 (Example 5). To be noted: s.c., restimulation with 0.1 up to 40 μg/ml Ova. Format: in vivo. How it is done:
as §3, with “of” for “of soluble”, “triplicates. During the final 18 h of culture, 1 μCi of [^3H]thymidine (Amersham International, Freiburg, Germany) was added to each well. Cells were then harvested on paper filters (Filtermat A; Wallac, Freiburg, Germany) by using a cell harvester (Inotech, Wohlen, Switzerland), and the amount of incorporated [^3H]thymidine into the DNA of proliferating cells was determined by a β-scintillation counter (Wallac 1450, Micro-Trilux). The results are expressed as the arithmetic mean of [^3H]thymidine uptake in cpm.” for “triplicates.”
T cell-mediated immune responses were investigated at day 42 by measuring the proliferation of cells recovered from spleens after in vitro restimulation with Ova. […]

This note sets out measurements from patent publication US10918733B2, “Lipopeptide- and lipoprotein-conjugates and its use” (HELMHOLTZ-ZENTRUM FUER INFEKTIONSFORSCHUNG GMBH, priority 2009, dated 2021).

B1: Ova: model antigen ovalbumin (Sigma Chemie) (protein, UniProt P01012 2-386, looked up)
Ovalbumin: GSIGAASMEFCFDVFKELKVHHANENIFYCPIAIMSALAMVYLGAKDSTRTQINKVVRFDKLPGFGDSIEAQCGTSVNVHSSLRDILNQITKPNDVYSFSLASRLYAEERYPILPEYLQCVKELYRGGLEPINFQTAADQARELINSWVESQTNGIIRNVLQPSSVDSQTAMVLVNAIVFKGLWEKAFKDEDTQAMPFRVTEQESKPVQMMYQIGLFRVASMASEKMKILELPFASGTMSMLVLLPDEVSGLEQLESIINFEKLTEWTSSNVMEERKIKVYLPRMKMEEKYNLTSVLMAMGITDVFSSSANLSGISSAESLKISQAVHAAHAEINEAGREVVGSAEAGVDAASVSEEFRADHPFLFCIKHIATNAVLFFGRCVSP
Regarding B1, the “stimulation of proliferation of Ova-specific CD4+ T cells by treated DC” value in experiment [1] is reported as “weak stimulation”. The “stimulation of proliferation of Ova-specific CD8+ T cells by treated DC” value in experiment [2] is “very efficiently”. The “potential for activating macrophages (NO secretion)” value in experiment [3] is “no potency”. For the same molecule, the “IFNγ producing cells after i.n. administration” value in experiment [4] is listed as “narrowly detectable”. Moreover, in the experiment on spleen cells, the “proliferative response of spleen cells, s.c. immunization” value is reported as “significant proliferative response”.
